Laboratory results reported in the RNAGym collection of RNA variant scans (doi:10.1101/gr.219683.116).

B1: mRNA-splicing (parent)
chain: AGUUGCUGCUGGGAGCUCCAGCACAGUGAAAUGGACAGAAGGGCAGAGCAA

Variants of: B1
Assay: exon inclusion enrichment index; higher = more inclusion; WT1 exon 5 minigene, HEK293

| Variant | exon inclusion enrichment index |
| --- | --- |
| C6A U7A C9A U10A A14C G15C | 0.452 |
| C6A U7A C9A U10A A14C G15U | 0.408 |
| C6A U7A C9A U10A A14C G15A | 0.473 |
| G5U G8U C9U G21C C22G | 0.384 |
| G5U G8U C9U G21C C22A | 0.108 |
| G5U G8U C9U G21C C22U | 0.151 |
| G5U G8U C9U C36G A37G | 0.0302 |
| G5U G8U C9U C36G A37C | 0.0336 |
| G5U G8U C9U C36G A37U | 0.0469 |
| C6A U7A | 0.261 |
| G5U G8U C9U G46U A47U | 0.164 |
| G5U G8U C9U G46U A47C | 0.55 |
| G5U G8U C9U G46U A47G | 0.0739 |
| G5U G8U C9U G26C U27A | 0.135 |
| G5U G8U C9U G26C U27C | 0.621 |
| G5U G8U C9U G26C U27G | 0.648 |
| G5U U7C U10C | 3.02 |
| G5U G8U C9U G41A G42C | 0.348 |
| G5U G8U C9U G41A G42U | 0.115 |
| G5U G8U C9U G41A G42A | 0.107 |
| G5U G8U C9U G12U | 0.0166 |

| Variant | exon inclusion enrichment index |
| --- | --- |
| G5U G8U C9U G12A | 0.0372 |
| G5U G8U C9U G12C | 0.0449 |
| G5U G8U C9U C44A A45G | 0.326 |
| G5U G8U C9U C44A A45C | 0.576 |
| G5U G8U C9U C44A A45U | 0.41 |
| G5U G8U C9U C36A A37U | 0.0263 |
| G5U G8U C9U C36A A37G | 0.0549 |
| G5U G8U C9U C36A A37C | 0.21 |
| G5U G8U C9U C36U | 0.0293 |
| G5U G8U C9U C36G | 0.0708 |
| G5U G8U C9U C36A | 0.0987 |
| G5U G8U C9U C22G A23U | 0.0132 |
| G5U G8U C9U C22G A23G | 0.0211 |
| G5U G8U C9U C22G A23C | 0.0377 |
| G5U G8U C9U G13A A14G | 0.152 |
| G5U G8U C9U G13A A14U | 0.349 |
| G5U G8U C9U G13A A14C | 0.61 |
| G5U G8U C9U U17G | 0.13 |
| G5U G8U C9U U17C | 0.0866 |
| G5U G8U C9U U17A | 0.136 |
| G5U G8U C9U G26U U27C | 0.729 |

| Variant | exon inclusion enrichment index |
| --- | --- |
| G5U G8U C9U G26U U27G | 0.458 |
| G5U G8U C9U G26U U27A | 0.0473 |
| C6A G8A C9A U10C | 0.666 |
| C6A G8A C9A U10A | 0.0495 |
| G5U G8U C9U G34C A35C | 0.0104 |
| G5U G8U C9U G34C A35U | 0.00745 |
| G5U G8U C9U G34C A35G | 0.0652 |
| C6A U7A C9A U10A A14C | 0.774 |
| C6A U7A C9A U10A A14G | 0.618 |
| C6A U7A C9A U10A A14U | 0.301 |
| G5U G8U C9U G21A C22A | 0.0256 |
| G5U G8U C9U G21A C22G | 0.143 |
| G5U G8U C9U G21A C22U | 0.0464 |
| C6A G8U C9A U10C | 0.728 |
| C6A G8U C9A U10A | 0.023 |
| G5U G8U C9U U27G G28U | 0.000678 |
| G5U G8U C9U U27G G28A | 0.148 |
| G5U G8U C9U U27G G28C | 0.027 |
| G5U U7C G8U C9U | 0.184 |
| G5U G8U C9U G21C | 0.162 |
| G5U G8U C9U G21A | 0.0718 |

| Variant | exon inclusion enrichment index |
| --- | --- |
| G5U G8U C9U G21U | 0.078 |
| C6A C9A U10A | 0.333 |
| C6A C9A U10C | 2.01 |
| G5U G8U C9U U27A G28A | 0.173 |
| G5U G8U C9U U27A G28U | 0.0328 |
| G5U G8U C9U U27A G28C | 0.109 |
| G5U G8U C9U C22A A23G | 0.141 |
| G5U G8U C9U C22A A23U | 0.0576 |
| G5U G8U C9U C22A A23C | 0.435 |
| G5U G8U C9U G41C | 0.706 |
| G5U G8U C9U G41A | 0.0762 |
| G5U G8U C9U G41U | 0.17 |
| G5U G8U C9U G12U G13C | 0.00926 |
| G5U G8U C9U G12U G13U | 0.000363 |
| G5U G8U C9U G12U G13A | 0.000421 |
| G5U G8U C9U G13C A14C | 0.063 |
| G5U G8U C9U G13C A14U | 0.1 |
| G5U G8U C9U G13C A14G | 0.2 |
| G5U G8U C9U G26A U27A | 0.24 |
| G5U G8U C9U G26A U27C | 0.838 |
